US20210246451, “APTAMER FOR ADAMTS5 AND USE FOR APTAMER FOR ADAMTS5” (RIBOMIC INC., published 2021)

Biological target: T1, ADAMTS5 (UniProt Q9UNA0 Q9UNA0:262-622)
T1 sequence: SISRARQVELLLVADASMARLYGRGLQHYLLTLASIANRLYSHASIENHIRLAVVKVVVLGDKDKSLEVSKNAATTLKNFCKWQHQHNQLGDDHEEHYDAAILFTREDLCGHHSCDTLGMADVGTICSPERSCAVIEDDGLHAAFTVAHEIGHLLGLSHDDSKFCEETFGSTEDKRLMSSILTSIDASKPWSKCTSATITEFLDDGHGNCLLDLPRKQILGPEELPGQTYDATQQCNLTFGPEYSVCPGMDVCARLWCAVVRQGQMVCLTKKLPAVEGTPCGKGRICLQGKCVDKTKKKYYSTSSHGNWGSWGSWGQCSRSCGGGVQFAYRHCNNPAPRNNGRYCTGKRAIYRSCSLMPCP
Test: inhibition; method 2 ELISA; method 1 92.9%
Settings: tags: R&D Systems
Experimental: The heat-treated reaction solution was electrophoresed by 7.5% SDS-PAGE and stained with SYPRO Orange (manufactured by Sigma-Aldrich). The staining was performed according to the manual of Sigma-Aldrich and detected using STORM840 manufactured by GE Healthcare. […] The amount of uncleaved substrate in each reaction solution was quantified from the band intensity and the standard curve. The substrate cleavage efficiency of ADAMTS5 under these reaction conditions was 80-100%. The inhibition rate of the test substance was calculated using the following equation.
On the other hand, the aptamers having the sequences shown by the sequences of SEQ ID NOs: 11(34)-11(35) and SEQ ID NO: 15 were evaluated by the following method (evaluation method 2). […] The cleaved substrate was quantified by a sandwich ELISA method using two kinds of anti-aggrecan antibodies. […] Using this, the amount of cleaved substrate can be quantified. […] The inhibition rate of the test substance was calculated using the following equation.
The aptamers having the sequences shown in SEQ ID NOs: 28(l)-28(18) (SEQ ID NO: 28 lineage) and SEQ ID NOs: 29(1)-29(3) (SEQ ID NO: 29 lineage) were all produced by chemical synthesis. Whether these aptamers inhibit the enzyme activity of ADAMTS5 was evaluated by a method similar to that in Example 1 and Example 5.

Binder: CGUAGGGGCCUCCACAGCAUUCGCUUGGACACAAACCACG (ssRNA, as SEQ 29 plus 2'-OMe at A31; 3' idT) [29(1)]
- IC50: 170 pM
